Read-outs that look alike come from different tables or passages of the source. Blank lines part the entries; values can stand above or below the molecule they belong to.
Assays:
[1] = target: CD33 antigen (human) (UniProt P20138)
[2] = target: CD33 antigen (human) (UniProt P20138); assay: competition with 125I-labelled native antibody on HEL 92.1.7 cells; IC50 (reference) / IC50 (sample)
[3] = target: CD33 antigen (human) (UniProt P20138); remark: listed apart in the source
[4] = target: CD33 antigen (human) (UniProt P20138); remark: listed apart in the source
[5] = target: CD33 antigen (human) (UniProt P20138); remark: listed apart in the source
[6] = target: CD33 antigen (human) (UniProt P20138); remark: listed apart in the source
[7] = target: CD33 antigen (human) (UniProt P20138); remark: listed apart in the source
[8] = target: CD33 antigen (human) (UniProt P20138); remark: listed apart in the source
[9] = target: CD33 antigen (human) (UniProt P20138); remark: listed apart in the source
[10] = target: CD33 antigen (human) (UniProt P20138); remark: listed apart in the source
[11] = target: CD33 antigen (human) (UniProt P20138); remark: listed apart in the source
[12] = target: CD33 antigen (human) (UniProt P20138); remark: listed apart in the source
[13] = target: CD33 antigen (human) (UniProt P20138); assay: competition with 125I-labelled native antibody on HEL 92.1.7 cells; IC50 (reference) / IC50 (sample); remark: listed apart in the source
[14] = target: CD33 antigen (human) (UniProt P20138); remark: listed apart in the source
[15] = target: CD33 antigen (human) (UniProt P20138); remark: listed apart in the source
[16] = target: CD33 antigen (human) (UniProt P20138); remark: listed apart in the source
[17] = target: CD33 antigen (human) (UniProt P20138); remark: listed apart in the source
[18] = target: CD33 antigen (human) (UniProt P20138); remark: listed apart in the source
[19] = target: CD33 antigen (human) (UniProt P20138); remark: listed apart in the source
[20] = target: CD33 antigen (human) (UniProt P20138); remark: listed apart in the source
[21] = target: CD33 antigen (human) (UniProt P20138); remark: listed apart in the source
[22] = target: CD33 antigen (human) (UniProt P20138); remark: listed apart in the source
[23] = target: CD33 antigen (human) (UniProt P20138); remark: listed apart in the source
[24] = target: CD33 antigen (human) (UniProt P20138); remark: listed apart in the source

Molecule: Conjugate of 4-(2-acetyl-1-naphthalenyl)oxy! butanoic acid (20) condensed with Calicheamicin N-acetyl gamma dimethyl hydrazide and m-P67.6 (antibody)
In vitro IC50 (3H-thymidine incorporation) [1]: 0.0067 ng/mL | Rel. Affinity [2]: 0.66

Molecule: Conjugate of 5-(4-acetylphenyl)amino!-5-oxopentanoic acid (24) condensed with Calicheamicin N-acetyl gamma dimethyl hydrazide and m-P67.6 (antibody)
Rel. Affinity [2]: 0.73 | In vitro IC50 (3H-thymidine incorporation) [3]: < 0.005 ng/mL

Molecule: Conjugate of 5-acetyl-2-(3-carboxypropoxy)benzoic acid (26), methyl ester condensed with Calicheamicin N-acetyl gamma dimethyl hydrazide and h-P67.6 (antibody)
In vitro IC50 (3H-thymidine incorporation) [6]: < 0.005 ng/mL | Rel. Affinity [2]: 0.79

Molecule: Conjugate of 4-4-(3-oxobutyl)phenoxy!butanoic acid (16) condensed with Calicheamicin N-acetyl gamma dimethyl hydrazide and m-P67.6 (antibody)
In vitro IC50 (3H-thymidine incorporation) [7]: 9 ng/mL

Molecule: Conjugate of 4-4-(3-oxopropyl)phenoxy!butanoic acid (18) condensed with Calicheamicin N-acetyl gamma dimethyl hydrazide and m-P67.6 (antibody)
In vitro IC50 (3H-thymidine incorporation) [10]: 0.62 ng/mL | Rel. Affinity [2]: 1.21

Molecule: Conjugate of 4-(2-acetyl-5-methoxyphenoxy!butanoic acid (17) condensed with Calicheamicin N-acetyl gamma dimethyl hydrazide and m-P67.6 (antibody)
Rel. Affinity [2]: 1.2 | In vitro IC50 (3H-thymidine incorporation) [11]: 0.0098 ng/mL

B1: Conjugate of 4-(4-acetyl-2,6-dimethoxyphenoxy)butanoic acid (14) condensed with Calicheamicin N-acetyl gamma dimethyl hydrazide and h-P67.6 (antibody, V domains shown)
VH: EVQLVQSGAEVKKPGSSVKVSCKASGYTITDSNIHWVRQAPGQSLEWIGYIYPYNGGTDYNQKFKNRATLTVDNPTNTAYMELSSLRSEDTDFYYCVNGNPWLAYWGQGTLVTVSS
VL: DIQLTQSPSTLSASVGDRVTITCRASESLDNYGIRFLTWFQQKPGKAPKLLMYAASNQGSGVPSRFSGSGSGTEFTLTISSLQPDDFATYYCQQTKEVPWSFGQGTKVEVKR
modifications: drug-linker amide on lysine side chains, sites not stated; drug-linker amide on lysine side chains, sites not stated
In vitro IC50 (3H-thymidine incorporation) [12]: 0.24 ng/mL | Rel. Affinity [13]: 1.07

B3: Conjugate of 4-4-(3-oxopropyl)phenoxy!butanoic acid (18) condensed with Calicheamicin N-acetyl gamma dimethyl hydrazide and h-P67.6 (antibody, V domains shown)
VH: EVQLVQSGAEVKKPGSSVKVSCKASGYTITDSNIHWVRQAPGQSLEWIGYIYPYNGGTDYNQKFKNRATLTVDNPTNTAYMELSSLRSEDTDFYYCVNGNPWLAYWGQGTLVTVSS
VL: DIQLTQSPSTLSASVGDRVTITCRASESLDNYGIRFLTWFQQKPGKAPKLLMYAASNQGSGVPSRFSGSGSGTEFTLTISSLQPDDFATYYCQQTKEVPWSFGQGTKVEVKR
modifications: drug-linker amide on lysine side chains, sites not stated; drug-linker amide on lysine side chains, sites not stated
Rel. Affinity [13]: 0.8 | In vitro IC50 (3H-thymidine incorporation) [15]: 1.1 ng/mL

B5: Conjugate of 11-(4-acetylphenoxy)undecanoic acid (23) condensed with Calicheamicin N-acetyl gamma dimethyl hydrazide and h-P67.6 (antibody, V domains shown)
VH: EVQLVQSGAEVKKPGSSVKVSCKASGYTITDSNIHWVRQAPGQSLEWIGYIYPYNGGTDYNQKFKNRATLTVDNPTNTAYMELSSLRSEDTDFYYCVNGNPWLAYWGQGTLVTVSS
VL: DIQLTQSPSTLSASVGDRVTITCRASESLDNYGIRFLTWFQQKPGKAPKLLMYAASNQGSGVPSRFSGSGSGTEFTLTISSLQPDDFATYYCQQTKEVPWSFGQGTKVEVKR
modifications: drug-linker amide on lysine side chains, sites not stated; drug-linker amide on lysine side chains, sites not stated
In vitro IC50 (3H-thymidine incorporation) [17]: 0.43 ng/mL | Rel. Affinity [13]: 0.8

B6: Conjugate of 4-2-(4-acetylphenyl)amino!methyl!-6-methoxyphenoxy!butanoic acid (28) condensed with Calicheamicin N-acetyl gamma dimethyl hydrazide and h-P67.6 (antibody, V domains shown)
VH: EVQLVQSGAEVKKPGSSVKVSCKASGYTITDSNIHWVRQAPGQSLEWIGYIYPYNGGTDYNQKFKNRATLTVDNPTNTAYMELSSLRSEDTDFYYCVNGNPWLAYWGQGTLVTVSS
VL: DIQLTQSPSTLSASVGDRVTITCRASESLDNYGIRFLTWFQQKPGKAPKLLMYAASNQGSGVPSRFSGSGSGTEFTLTISSLQPDDFATYYCQQTKEVPWSFGQGTKVEVKR
modifications: drug-linker amide on lysine side chains, sites not stated; drug-linker amide on lysine side chains, sites not stated
In vitro IC50 (3H-thymidine incorporation) [18]: < 0.005 ng/mL | Rel. Affinity [13]: 0.85

B7: Conjugate of 4-(4-acetyl-2-methoxyphenoxy)butanoic acid (15) condensed with Calicheamicin N-acetyl gamma dimethyl hydrazide and h-P67.6 (antibody, V domains shown)
VH: EVQLVQSGAEVKKPGSSVKVSCKASGYTITDSNIHWVRQAPGQSLEWIGYIYPYNGGTDYNQKFKNRATLTVDNPTNTAYMELSSLRSEDTDFYYCVNGNPWLAYWGQGTLVTVSS
VL: DIQLTQSPSTLSASVGDRVTITCRASESLDNYGIRFLTWFQQKPGKAPKLLMYAASNQGSGVPSRFSGSGSGTEFTLTISSLQPDDFATYYCQQTKEVPWSFGQGTKVEVKR
modifications: drug-linker amide on lysine side chains, sites not stated; drug-linker amide on lysine side chains, sites not stated
In vitro IC50 (3H-thymidine incorporation) [19]: 0.23 ng/mL | Rel. Affinity [13]: 0.78

B9: Conjugate of 4-4-(4-fluorobenzoyl)phenoxy!butanoic acid (21) condensed with Calicheamicin N-acetyl gamma, dimethyl hydrazide and h-P67.6 (antibody, V domains shown)
VH: EVQLVQSGAEVKKPGSSVKVSCKASGYTITDSNIHWVRQAPGQSLEWIGYIYPYNGGTDYNQKFKNRATLTVDNPTNTAYMELSSLRSEDTDFYYCVNGNPWLAYWGQGTLVTVSS
VL: DIQLTQSPSTLSASVGDRVTITCRASESLDNYGIRFLTWFQQKPGKAPKLLMYAASNQGSGVPSRFSGSGSGTEFTLTISSLQPDDFATYYCQQTKEVPWSFGQGTKVEVKR
modifications: drug-linker amide on lysine side chains, sites not stated; drug-linker amide on lysine side chains, sites not stated
Rel. Affinity [13]: 0.76 | In vitro IC50 (3H-thymidine incorporation) [21]: 63 ng/mL

Other lines, results leading:

Rel. Affinity [2]: 1.16 | In vitro IC50 (3H-thymidine incorporation) [4]: 0.47 ng/mL
Molecule: Conjugate of 11-(4-acetylphenoxy)undecanoic acid (23) condensed with Calicheamicin N-acetyl gamma dimethyl hydrazide and m-P67.6 (antibody)

Rel. Affinity [2]: 1.08 | In vitro IC50 (3H-thymidine incorporation) [5]: 0.062 ng/mL
Molecule: Conjugate of 4-(2,3-Dimethoxy-5-formylphenoxy)butanoic acid (13) condensed with Calicheamicin N-acetyl gamma dimethyl hydrazide and m-P67.6 (antibody)

Rel. Affinity [2]: 0.8 | In vitro IC50 (3H-thymidine incorporation) [8]: 0.029 ng/mL
Molecule: Conjugate of 4-(4-acetyl-2-methoxyphenoxy)butanoic acid (15) condensed with Calicheamicin N-acetyl gamma dimethyl hydrazide and m-P67.6 (antibody)

In vitro IC50 (3H-thymidine incorporation) [9]: 0.015 ng/mL | Rel. Affinity [2]: 1.18
Molecule: Conjugate of 4-(4-acetyl-2,6-dimethoxyphenoxy)butanoic acid (14) condensed with Calicheamicin N-acetyl gamma dimethyl hydrazide and m-P67.6 (antibody)

In vitro IC50 (3H-thymidine incorporation) [14]: 12 ng/mL | Rel. Affinity [13]: 0.98
B2: Conjugate of 4-(4-acetylphenyl)-1-piperazinepentanoic acid (22) condensed with Calicheamicin N-acetyl gamma dimethyl hydrazide and h-P67.6 (antibody, V domains shown)
VH: EVQLVQSGAEVKKPGSSVKVSCKASGYTITDSNIHWVRQAPGQSLEWIGYIYPYNGGTDYNQKFKNRATLTVDNPTNTAYMELSSLRSEDTDFYYCVNGNPWLAYWGQGTLVTVSS
VL: DIQLTQSPSTLSASVGDRVTITCRASESLDNYGIRFLTWFQQKPGKAPKLLMYAASNQGSGVPSRFSGSGSGTEFTLTISSLQPDDFATYYCQQTKEVPWSFGQGTKVEVKR
modifications: drug-linker amide on lysine side chains, sites not stated; drug-linker amide on lysine side chains, sites not stated

In vitro IC50 (3H-thymidine incorporation) [16]: 0.023 ng/mL | Rel. Affinity [13]: 1.3
B4: Conjugate of 4-(4-formyl-2-nitrophenoxy)butanoic acid (27) condensed with Calicheamicin N-acetyl gamma dimethyl hydrazide and h-P67.6 (antibody, V domains shown)
VH: EVQLVQSGAEVKKPGSSVKVSCKASGYTITDSNIHWVRQAPGQSLEWIGYIYPYNGGTDYNQKFKNRATLTVDNPTNTAYMELSSLRSEDTDFYYCVNGNPWLAYWGQGTLVTVSS
VL: DIQLTQSPSTLSASVGDRVTITCRASESLDNYGIRFLTWFQQKPGKAPKLLMYAASNQGSGVPSRFSGSGSGTEFTLTISSLQPDDFATYYCQQTKEVPWSFGQGTKVEVKR
modifications: drug-linker amide on lysine side chains, sites not stated; drug-linker amide on lysine side chains, sites not stated

Rel. Affinity [13]: 0.67 | In vitro IC50 (3H-thymidine incorporation) [20]: 99 ng/mL
B8: Conjugate of 4-4-(4-fluorobenzoyl)phenoxy!butanoic acid (21) condensed with Calicheamicin N-acetyl gamma dimethyl hydrazide and h-P67.6 (antibody, V domains shown)
VH: EVQLVQSGAEVKKPGSSVKVSCKASGYTITDSNIHWVRQAPGQSLEWIGYIYPYNGGTDYNQKFKNRATLTVDNPTNTAYMELSSLRSEDTDFYYCVNGNPWLAYWGQGTLVTVSS
VL: DIQLTQSPSTLSASVGDRVTITCRASESLDNYGIRFLTWFQQKPGKAPKLLMYAASNQGSGVPSRFSGSGSGTEFTLTISSLQPDDFATYYCQQTKEVPWSFGQGTKVEVKR
modifications: drug-linker amide on lysine side chains, sites not stated; drug-linker amide on lysine side chains, sites not stated

In vitro IC50 (3H-thymidine incorporation) [22]: 0.0071 ng/mL | Rel. Affinity [13]: 0.31
B10: Conjugate of 4-(2-chloro-4-formylphenoxy)butanoic acid (25) condensed with Calicheamicin N-acetyl gamma dimethyl hydrazide and h-P67.6 (antibody, V domains shown)
VH: EVQLVQSGAEVKKPGSSVKVSCKASGYTITDSNIHWVRQAPGQSLEWIGYIYPYNGGTDYNQKFKNRATLTVDNPTNTAYMELSSLRSEDTDFYYCVNGNPWLAYWGQGTLVTVSS
VL: DIQLTQSPSTLSASVGDRVTITCRASESLDNYGIRFLTWFQQKPGKAPKLLMYAASNQGSGVPSRFSGSGSGTEFTLTISSLQPDDFATYYCQQTKEVPWSFGQGTKVEVKR
modifications: drug-linker amide on lysine side chains, sites not stated; drug-linker amide on lysine side chains, sites not stated

In vitro IC50 (3H-thymidine incorporation) [23]: 0.005 ng/mL | Rel. Affinity [13]: 1.01
B11: Conjugate of 4-(4-acetyl-3-fluorophenoxy)butanoic acid (30) condensed with Calicheamicin N-acetyl gamma dimethyl hydrazide and h-P67.6 (antibody, V domains shown)
VH: EVQLVQSGAEVKKPGSSVKVSCKASGYTITDSNIHWVRQAPGQSLEWIGYIYPYNGGTDYNQKFKNRATLTVDNPTNTAYMELSSLRSEDTDFYYCVNGNPWLAYWGQGTLVTVSS
VL: DIQLTQSPSTLSASVGDRVTITCRASESLDNYGIRFLTWFQQKPGKAPKLLMYAASNQGSGVPSRFSGSGSGTEFTLTISSLQPDDFATYYCQQTKEVPWSFGQGTKVEVKR
modifications: drug-linker amide on lysine side chains, sites not stated; drug-linker amide on lysine side chains, sites not stated

Rel. Affinity [13]: 0.98 | In vitro IC50 (3H-thymidine incorporation) [24]: 0.088 ng/mL
B12: Conjugate of 4-(2-acetyl-5-methoxyphenoxy!butanoic acid (17) condensed with Calicheamicin N-acetyl gamma dimethyl hydrazide and h-P67.6 (antibody, V domains shown)
VH: EVQLVQSGAEVKKPGSSVKVSCKASGYTITDSNIHWVRQAPGQSLEWIGYIYPYNGGTDYNQKFKNRATLTVDNPTNTAYMELSSLRSEDTDFYYCVNGNPWLAYWGQGTLVTVSS
VL: DIQLTQSPSTLSASVGDRVTITCRASESLDNYGIRFLTWFQQKPGKAPKLLMYAASNQGSGVPSRFSGSGSGTEFTLTISSLQPDDFATYYCQQTKEVPWSFGQGTKVEVKR
modifications: drug-linker amide on lysine side chains, sites not stated; drug-linker amide on lysine side chains, sites not stated

Reference: patent US5773001 (American Cyanamid Company, dated 1998)
